Our source for the ratio to parent values is publication PMC4637903.

In the first assay the target is wild-type FAK (co-immunoprecipitations from transfected cells). Description: co-immunoprecipitation (IP: Myc (β4)) and Western blot, densitometry. The note with it: parent: 1.0.
For the substance “wild-type β4 integrin (co-immunoprecipitations from transfected cells) (from UniProt P16144) Y1422F”, the ratio to parent was found to be 1.1.

With “wild-type β4 integrin (co-immunoprecipitations from transfected cells) (from UniProt P16144) Y1440F”, the ratio to parent was 1.4.

For the substance “wild-type β4 integrin (co-immunoprecipitations from transfected cells) (from UniProt P16144) Y1494F”, the ratio to parent was 1.1.

For “wild-type β4 integrin (co-immunoprecipitations from transfected cells) (from UniProt P16144) Y1526F”, the ratio to parent was determined as 0.5.

“wild-type β4 integrin (co-immunoprecipitations from transfected cells) (from UniProt P16144) Y1642F”: the ratio to parent was determined as 0.3.

The target of another assay is wild-type β4 integrin (co-immunoprecipitations from transfected cells) (UniProt P16144). Described as above. The note with it: parent: 1.0.
Chain of UniProt P16144 (P16144 28-1822): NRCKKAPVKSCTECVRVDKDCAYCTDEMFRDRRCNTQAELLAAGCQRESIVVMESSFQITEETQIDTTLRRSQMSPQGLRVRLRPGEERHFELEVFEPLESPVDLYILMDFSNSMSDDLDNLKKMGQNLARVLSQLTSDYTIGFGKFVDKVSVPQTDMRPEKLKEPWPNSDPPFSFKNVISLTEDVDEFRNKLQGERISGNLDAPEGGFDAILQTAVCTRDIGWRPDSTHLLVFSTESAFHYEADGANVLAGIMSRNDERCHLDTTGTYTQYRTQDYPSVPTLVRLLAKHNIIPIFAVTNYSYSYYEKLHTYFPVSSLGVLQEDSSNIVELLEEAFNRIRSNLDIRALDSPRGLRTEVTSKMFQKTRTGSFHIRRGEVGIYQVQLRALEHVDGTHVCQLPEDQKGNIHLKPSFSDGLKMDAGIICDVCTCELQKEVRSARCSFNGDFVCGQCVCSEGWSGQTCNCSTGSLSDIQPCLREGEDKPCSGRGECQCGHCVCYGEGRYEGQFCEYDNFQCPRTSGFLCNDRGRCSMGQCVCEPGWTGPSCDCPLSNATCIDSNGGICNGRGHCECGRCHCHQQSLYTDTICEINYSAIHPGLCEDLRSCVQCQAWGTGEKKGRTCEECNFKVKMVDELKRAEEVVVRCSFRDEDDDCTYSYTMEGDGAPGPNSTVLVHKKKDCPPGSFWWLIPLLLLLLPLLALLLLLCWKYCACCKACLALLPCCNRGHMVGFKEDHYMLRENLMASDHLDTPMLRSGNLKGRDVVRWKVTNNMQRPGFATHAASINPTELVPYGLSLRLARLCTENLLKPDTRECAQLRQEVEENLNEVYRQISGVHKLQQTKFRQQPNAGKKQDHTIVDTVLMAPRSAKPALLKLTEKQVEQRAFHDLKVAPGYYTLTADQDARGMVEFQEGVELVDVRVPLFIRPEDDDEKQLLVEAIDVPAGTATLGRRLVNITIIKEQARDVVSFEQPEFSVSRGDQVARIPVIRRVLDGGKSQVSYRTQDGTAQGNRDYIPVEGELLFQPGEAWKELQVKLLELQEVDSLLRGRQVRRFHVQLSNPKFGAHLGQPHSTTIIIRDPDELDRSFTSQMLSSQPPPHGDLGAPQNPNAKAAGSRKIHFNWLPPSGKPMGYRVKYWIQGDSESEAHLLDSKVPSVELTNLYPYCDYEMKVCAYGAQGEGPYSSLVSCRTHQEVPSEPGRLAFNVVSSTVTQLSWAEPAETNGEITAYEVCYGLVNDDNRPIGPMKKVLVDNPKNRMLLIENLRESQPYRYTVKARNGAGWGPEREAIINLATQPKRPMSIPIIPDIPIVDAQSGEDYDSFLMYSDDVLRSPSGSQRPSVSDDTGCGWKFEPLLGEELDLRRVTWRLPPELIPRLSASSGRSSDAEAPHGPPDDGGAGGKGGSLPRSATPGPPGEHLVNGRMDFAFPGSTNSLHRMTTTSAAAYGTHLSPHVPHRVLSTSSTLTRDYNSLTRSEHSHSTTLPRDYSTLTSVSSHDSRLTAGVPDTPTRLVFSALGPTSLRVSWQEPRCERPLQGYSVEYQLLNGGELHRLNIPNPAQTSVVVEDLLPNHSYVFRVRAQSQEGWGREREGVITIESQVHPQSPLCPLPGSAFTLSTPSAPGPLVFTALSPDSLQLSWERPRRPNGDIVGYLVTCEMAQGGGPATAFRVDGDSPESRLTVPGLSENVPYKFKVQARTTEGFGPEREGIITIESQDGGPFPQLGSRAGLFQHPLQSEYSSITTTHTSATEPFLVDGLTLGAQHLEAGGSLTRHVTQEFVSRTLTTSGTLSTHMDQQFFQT
On to “wild-type FAK (co-immunoprecipitations from transfected cells) E380A”, for which the ratio to parent stood at 0.3.

In the case of “wild-type FAK (co-immunoprecipitations from transfected cells) G383A”, the ratio to parent was 1.2.

With “wild-type FAK (co-immunoprecipitations from transfected cells) K381A”, the ratio to parent was 0.3.

Take “wild-type FAK (co-immunoprecipitations from transfected cells) N379A”: the ratio to parent was found to be 1.4.

Turning to “wild-type FAK (co-immunoprecipitations from transfected cells) Q382A”, the ratio to parent was determined as 0.3.

For “wild-type FAK (co-immunoprecipitations from transfected cells) R385A”, the ratio to parent is 0.5.

As for “wild-type FAK (co-immunoprecipitations from transfected cells) S386A”, the ratio to parent was 1.2.

For the next assay the target is unchanged. Description: co-immunoprecipitation (IP: β4) and Western blot, densitometry. Particulars: parent: 1.0.
Regarding “wild-type FAK (co-immunoprecipitations from transfected cells) E380A; K381A; Q382A”, the ratio to parent was 0.2.

Take “wild-type FAK (co-immunoprecipitations from transfected cells) R385A; S386A”: the ratio to parent is 0.7.
